Measurements taken from patent US12018084B2, “Anti-CXCR2 antibodies and uses thereof” (Cephalon LLC, priority 2018, dated 2024).
Where a chain is given by its changes, count along the chain named.

T1: Human CXCR2 (Homo sapiens, UniProt P25025)
T1 sequence (P25025 1-360): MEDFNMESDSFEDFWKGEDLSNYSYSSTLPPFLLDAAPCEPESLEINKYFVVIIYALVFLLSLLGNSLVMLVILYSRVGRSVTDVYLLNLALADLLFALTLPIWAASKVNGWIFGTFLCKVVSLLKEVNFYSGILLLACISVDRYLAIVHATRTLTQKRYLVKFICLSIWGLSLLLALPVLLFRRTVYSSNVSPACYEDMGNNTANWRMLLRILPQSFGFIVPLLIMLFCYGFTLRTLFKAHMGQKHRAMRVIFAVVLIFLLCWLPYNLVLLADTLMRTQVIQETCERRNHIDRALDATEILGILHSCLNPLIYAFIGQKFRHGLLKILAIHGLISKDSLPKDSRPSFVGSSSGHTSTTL

B1: BKO-4A8: parental anti-CXCR2 antibody, VH SEQ ID NO: 17, VL SEQ ID NO: 18 (antibody, V domains shown)
VH: EVQLLESGGGLVQPGGSLRLSCAASGFTFSSSTMSWVRQAPGKGLEWVSAISGRGRNTYYADSVKGRFTISRDNSRNTLYLQMNSLRAEDTAVYYCAIQMGYWGQGILVTVSS
VL: QSALTQPPSASGSPGQSVTISCIGTSSDVGGYNYVSWYQQHPDKAPKLMIYEVNKRPSGVPDRFSGSKSGNTASLTVSGLQAEDEADYYCSSYAGNNNFGVFGGGTKLTVL
modifications: BKO_4A8_VH; BKO_4A8_VL
B2: 101c: VH SEQ ID NO: 108, VL SEQ ID NO: 110; renamed BKO-4A8-101c (antibody, V domains shown)
VH: B1 VH with M34Q, A40P, N57S, R76K, M100A
VL: B1 VL with D43G, N54S, N96S
modifications: 4A8 VH Variant 101 M34Q_A40P_N56S_R75K_M96A; 4A8 VL variant c D41G_N52S_N94S
notes: renamed BKO-4A8-101c

Legend:
[1] = target: T1, Human CXCR2; assay: cELISA of hybridoma supernatants on cells transfected with human CXCR2; type: binding; set-up: host or cells: Expi293F cells, vector pTT5; conditions: hybridoma supernatant; fluorescence units relative to positive control (100%)
Method: To generate hybridomas which produced monoclonal antibodies to human CXCR2, splenocytes and/or lymph node cells from animals with the highest anti-CXCR2 titres were isolated and fused to mouse myeloma cells (ATCC, CRL-1580). Cells were plated at approximately 1×10^5 cells/mL in flat bottom microtiter plates, followed by a two week incubation in selective medium (10% FCS and 1×HAT (Sigma)). Hybridomas were expanded by serial passage through four media changes in 96-well plates (96-well stages 1 to 4), then, where required, expanded into T25 and T75 flasks. […] Bound antibodies were detected using a goat anti-rat IgG-HRP (Southern Biotech, #3030-05) secondary antibody.
A panel of hybridomas was generated using lymph nodes and spleen cells from the transgenic rats engineered to express human variable region sequences. A cellular ELISA (cELISA) was used to detect human CXCR2 binding activity in supernatants taken during the expansion process for the hybridomas (Table 5). Hybridomas that retained expression of antibodies that bound CXCR2 after several passages were selected for DNA sequencing.

[2] = target: T1, Human CXCR2; assay: Calcium flux assay, HTS002C-CHEMISCREEN human CXCR2 calcium-optimized cell line; type: cell-based
Method: One of the signaling pathways downstream of CXCR2 activation that has a role in cell chemotaxis is characterized by calcium mobilization (flux). The ability of BKO-4A8-101c to inhibit human CXCR2 ligand-induced calcium flux was tested in the commercially available HTS002C-CHEMISCREEN™ human CXCR2 chemokine receptor calcium-optimized cell line.
The Fluo-4 NW calcium assay kit (Life Technologies) was used according to manufacturer's protocol for in-cell measurement of calcium mobilization, which was read using a FLIPR Tetra high-throughput cellular screening system (Molecular Devices). The peak response minus the basal response from each well was used to determine inhibition dose response curves fitting a four-parameter logistic equation and IC50 values.

[3] = tested on: cynomolgus monkeys; assay: LPS induced acute lung inflammation in cynomolgus monkey; type: in vivo
Method: Biologics naïve (i.e. not previously administered exogenous biologics) male cynomolgus monkeys were randomized into groups receiving vehicle or the anti-CXCR2 antibody BKO-4A8-101c administered by intravenous administration at a dose of 1 mg/kg on days 0, 14, and 28. One hour post-treatment of test antibodies on day 0, animals were exposed to aerosolized bacterial lipopolysaccharide (LPS) by inhalation of 20 μg/L for 5 mins (total dose 20 μg/kg). This is a well-established model of acute lung inflammation. Inflammatory responses were characterized at 24 hours after LPS exposure by total and differential cell counts of bronchoalveolar lavage fluid of the left lung and compared to matched counts from naïve animals at pre-treatment day 14. Blood was collected at various time points for differential cell count and serum collected for pharmacokinetic analysis.

[4] = 1 mg/kg intravenous days 0, 14, 28

Molecule | Human CXCR2 % Positive [1] [%] | CXCL1 Maximal Inhibition % ([2]; CXCL1 at EC50) [%] | CXCL8 Maximal Inhibition % ([2]; CXCL8 at EC50) [%] | Maximal Inhibition % Mean ([2]; Hu CXCL1) [%] | Maximal Inhibition % Mean ([2]; Hu CXCL2) [%] | Maximal Inhibition % Mean ([2]; Hu CXCL3) [%] | Maximal Inhibition % Mean ([2]; Hu CXCL5) [%] | Maximal Inhibition % Mean ([2]; Hu CXCL6) [%] | Maximal Inhibition % Mean ([2]; Hu CXCL7) [%] | Maximal Inhibition % Mean ([2]; Hu CXCL8) [%] | LPS-induced pulmonary neutrophilia ([3]; 1 mg/kg intravenous 1 hour before LPS, BAL 24 hours after LPS) | blood neutrophil counts following repeat dosing [3, 4] | tolerability, body weight [3, 4]
B1 | 110 |  |  |  |  |  |  |  |  |  |  |  | 
B2 |  | 93 | 9 | 91 | 88 | 52 | 81 | 81 | 43 | 9 | markedly inhibited | did not induce measurable changes | well tolerated with no loss in body weight
